Patent publication US20110217291A1 (ZymoGenetics, published 2011)
One block for each binder: values may come before it.

Key:
Test in all cases: cell-based or functional assay
[1] = target: rabbit polyclonal anti-OVA antibodies
[2] = target: rabbit polyclonal anti-OVA antibodies; remark: listed apart in the source
[3] = target: rabbit polyclonal anti-OVA antibodies; remark: listed apart in the source
[4] = target: rabbit polyclonal anti-OVA antibodies; remark: listed apart in the source

IC50 (read off the curve); IL-6 secretion by MC/9 mast cells stimulated with anti-OVA/OVA immune complexes [1]: ~1 pmol
IC50 (read off the curve); IL-13 secretion by MC/9 mast cells stimulated with anti-OVA/OVA immune complexes [2]: ~1 pmol
IC50 (read off the curve); TNF-α secretion by MC/9 mast cells stimulated with anti-OVA/OVA immune complexes [3]: ~1 pmol
IC50 (read off the curve); MCP-1 secretion by MC/9 mast cells stimulated with anti-OVA/OVA immune complexes [4]: ~2 pmol
B1: untagged recombinant soluble human FcγRIA (receptor)
chain: QVDTTKAVITLQPPWVSVFQEETVTLHCEVLHLPGSSSTQWFLNGTATQTSTPSYRITSASVNDSGEYRCQRGLSGRSDPIQLEIHRGWLLLQVSSRVFTEGEPLALRCHAWKDKLVYNVLYYRNGKAFKFFHWNSNLTILKTNISHNGTYHCSGMGKHRYTSAGISVTVKELFPAPVLNASVTSPLLEGNLVTLSCETKLLLQRPGLQLYFSFYMGSKTLRGRNTSSEYQILTARREDSGLYWCEAATEDGNVLKRSPELELQVLG
modifications: N-terminal pyro-glutamic acid, converted from the glutamine at position 16

IC50 (read off the curve); IL-6 secretion by MC/9 mast cells stimulated with anti-OVA/OVA immune complexes [1]: ~2 pmol
IC50 (read off the curve); IL-13 secretion by MC/9 mast cells stimulated with anti-OVA/OVA immune complexes [2]: ~2 pmol
IC50 (read off the curve); TNF-α secretion by MC/9 mast cells stimulated with anti-OVA/OVA immune complexes [3]: ~2 pmol
IC50 (read off the curve); MCP-1 secretion by MC/9 mast cells stimulated with anti-OVA/OVA immune complexes [4]: ~2 pmol
B2: FcγRIIA/RIA-CH6 (soluble hybrid receptor: first Ig domain of FcγRIIA followed by second and third Ig domains of FcγRIA, C-terminal six His tag) (receptor)
chain: AAPPKAVLKLEPPWINVLQEDSVTLTCQGARSPESDSIQWFHNGNLIPTHTQPSYRFKANNNDSGEYTCQTGQTSLSDPVHLTVLSEWLLLQVSSRVFTEGEPLALRCHAWKDKLVYNVLYYRNGKAFKFFHWNSNLTILKTNISHNGTYHCSGMGKHRYTSAGISVTVKELFPAPVLNASVTSPLLEGNLVTLSCETKLLLQRPGLQLYFSFYMGSKTLRGRNTSSEYQILTARREDSGLYWCEAATEDGNVLKRSPELELQVLGGSGGHHHHHH

IC50 (read off the curve); IL-6 secretion by MC/9 mast cells stimulated with anti-OVA/OVA immune complexes [1]: ~2 pmol
IC50 (read off the curve); IL-13 secretion by MC/9 mast cells stimulated with anti-OVA/OVA immune complexes [2]: ~1 pmol
IC50 (read off the curve); TNF-α secretion by MC/9 mast cells stimulated with anti-OVA/OVA immune complexes [3]: ~1 pmol
IC50 (read off the curve); MCP-1 secretion by MC/9 mast cells stimulated with anti-OVA/OVA immune complexes [4]: ~2 pmol
B3: FcγRIIIA/RIA-CH6 (soluble hybrid receptor: first Ig domain of FcγRIIIA followed by second and third Ig domains of FcγRIA, C-terminal six His tag) (receptor)
chain: EDLPKAVVFLEPQWYRVLEKDSVTLKCQGAYSPEDNSTQWFHNESLISSQASSYFIDAATVDDSGEYRCQTNLSTLSDPVQLEVHIGWLLLQVSSRVFTEGEPLALRCHAWKDKLVYNVLYYRNGKAFKFFHWNSNLTILKTNISHNGTYHCSGMGKHRYTSAGISVTVKELFPAPVLNASVTSPLLEGNLVTLSCETKLLLQRPGLQLYFSFYMGSKTLRGRNTSSEYQILTARREDSGLYWCEAATEDGNVLKRSPELELQVLGGSGGHHHHHH
